Data from publication PMC9170038.

Key:
[1] = system: Tetracycline aptamer, RNA-MaP condition construct (RNA, aptamer) GGAAAGGCGCUAAAACAUACCAGUUCGCUGGAGAGGUGAAGAAUACGACCACCUAGCGCCAAAGAAACAACAACAACAAC; assay: 1M7 chemical mapping; settings: 80 mM KCl, 4 mM MgCl2; 100 mM Tris-HCl, pH 7.5, 37 °C
[2] = system: Tetracycline aptamer, Light-up construct (RNA, aptamer) GGGAACGUCUCCGAGUAGGAGACGAAGGGAGAGUGGCAGCUUACAACGCUAAAACAUACCUGCACCACCGACCUUGAAAACAAGGGUAACGAAUGUGGAGCAGGAGAGGUGAAGAAUACGACCACCUAGCGAAGUGGGCUGUUGCUUUUCCAAGCUUAUCGAGUAGAUAAGCAAAAAGAAACAACAACAACAAC; assay: DMS chemical mapping; settings: 5 mM MgCl2, 1x PBS, pH 6.1, 24 °C
[3] = system: BH_E029 (RNA, aptamer) GGGAGAGUGGCAGCUUACAACGUAACGAUGCGGCCGCCACUGAUCCGACUGGUUAACAGAAAGUCCUGACCAGGUAACGAAUGGUCAGGACCGGGCAUUGUUACGAAGUGGGCUGUUGCUUUUCC; assay: light-up fluorescence kinetics; settings: 5 mM MgCl2, 1x PBS, pH 6.1, with tryptophan (ON state)
[4] = system: FMN aptamer, RNA-MaP condition construct (RNA, aptamer) GGAAAGGCGUGUAGGAUAUGCUUCGGCAGAAGGACACGCCAAAGAAACAACAACAACAAC; assay: 1M7 chemical mapping; settings: 80 mM KCl, 4 mM MgCl2; 100 mM Tris-HCl, pH 7.5, 37 °C
[5] = system: FMN aptamer, Light-up construct (RNA, aptamer) GGGAACGUCUCCGAGUAGGAGACGAAGGGAGAGUGGCAGCUUACAAUUCCAGCCGACCACUGAAAUACUCUAGAGGAUAUGACAGACAAAGUCUGUCAGAAGGCUAGAGCAGUGGGUAACGAAUGCUGGAAAAGUGGGCUGUUGCUUUUCCAAGCUUAUCGAGUAGAUAAGCAAAAAGAAACAACAACAACAAC; assay: DMS chemical mapping; settings: 5 mM MgCl2, 1x PBS, pH 6.1, 24 °C
[6] = system: BC_JL-sng2-3.09 (RNA, aptamer) GGGUAUGUCGCAGAAGUAGCUAUCGGAGGAUAUUCAUACCGGAAACGGACAUGAGGAUCACCCAUGUGGCGAAAGCCUUGGGAGAAGGCUGAUAGCUACAACUGCGACAUACCCAAAAAAAAAAAAAAAAAAAAAAAAA; assay: flow cytometry of RNA beads with MS2 protein; DMS chemical mapping; settings: RNA immobilised on beads; reversible over 80 FMN buffer exchanges
[7] = molecular target: T1, MS2 coat protein, dlFG mutant (Escherichia phage MS2, UniProt P03612, del68-81insG); assay: 4 mM Mg2+; no ligand; RNA-MaP array; 100 mM Tris-HCl pH 7.5, 80 mM KCl, 4 mM MgCl2, 0.1 mg/mL BSA, 1 mM DTT, 0.01 mg/mL yeast tRNA, 0.01% Tween-20; protein 1.5 nM to 3 uM; 37 C (Table S3); settings: chain copies: 2; label: tethered by stalled RNA polymerase
[8] = molecular target: T1, MS2 coat protein, dlFG mutant; assay: 4 mM Mg2+; L-tryptophan 2.4 mM; RNA-MaP array; 100 mM Tris-HCl pH 7.5, 80 mM KCl, 4 mM MgCl2, 0.1 mg/mL BSA, 1 mM DTT, 0.01 mg/mL yeast tRNA, 0.01% Tween-20; protein 1.5 nM to 3 uM; 37 C (Table S3); settings: chain copies: 2; label: tethered by stalled RNA polymerase
[9] = molecular target: T1, MS2 coat protein, dlFG mutant; assay: 4 mM Mg2+; FMN 200 uM; RNA-MaP array; 100 mM Tris-HCl pH 7.5, 80 mM KCl, 4 mM MgCl2, 0.1 mg/mL BSA, 1 mM DTT, 0.01 mg/mL yeast tRNA, 0.01% Tween-20; protein 1.5 nM to 3 uM; 37 C (Table S3); settings: chain copies: 2; label: tethered by stalled RNA polymerase

| Molecule | Kd [7] [µM] | also measured |
| --- | --- | --- |
| CN(C)[C@@H]1C(=O)C(C(N)=O)=C(O)[C@@]2(O)C(=O)C3=C(O)c4c(O)cccc4[C@@](C)(O)[C@H]3C[C@@H]12 | – | Kd [1]: 622.07 ± 132.12/-105.63 nM; Kd [2]: 57.50 ± 22.58/-15.88 nM |
| CN(C)c1ccc(C(=C2C=CC(=[N+](C)C)C=C2)c2ccccc2)cc1 | – | binding [3]: yes |
| Cc1cc2nc3c(=O)[nH]c(=O)nc-3n(C[C@H](O)[C@H](O)[C@H](O)COP(=O)(O)O)c2cc1C | – | Kd [4]: 1.71 ± 0.60/-0.44 μM; Kd [5]: 1.57 ± 0.58/-0.41 μM; binding [6]: yes |
| Eterna 1206 (Exclusion - Tryptophan A) (ssRNA) RNA: CUAUAGACCCUUCGGAUAGUGAUGUUGUCACGAGGACCGGUACGGCCGCCACUCGCUGCCACCAUACCGCUUCACGGAACGAGCA | > 3 | – |
| Eterna 6121097 (Same State NG 1) (ssRNA) RNA: CGCUGUCACGCAGGAUAUGCAUUGGAUUACAAUGCAGAAGGGCGAUUACAUGAGGAUCACCCAUGUGUCGACAGUGAAGAAGAG | 0.532 | – |
| Eterna 1165 (Exclusion - Theophylline B) (ssRNA) RNA: CCAAGCGUCAGCGAUACCAGAAUUCUAGUGAUGUUAGGUUCUGUCAUUGUACUAGCAGUGUUCCCUUGGCAGCGCGUGAUAGGCA | > 3 | – |
| Eterna 7675419 (Same State - Tryptophan A) (ssRNA) RNA: UUUAAACAUAGUGAUGUUAUGUAACAAUGACGAGGACCGGUACGGCCGCCACUCGAGAGAGAUGAUGGUAAAAUAAAUAAUUUUC | > 3 | – |
| Eterna 7681146 (Same State - Arginine A) (ssRNA) RNA: ACUGGGUUGACGAAAGUCAACAAAAGAGAAGGAGCGCACGAAAGUGCAGGUAGGUCGCUCAUCCAGUGAUGUUGGAUCAUCCAGA | > 3 | – |
| Eterna 7671436 (Same State - Theophylline A) (ssRNA) RNA: UGGACCUGACUCGAUAAGAGUCAAGGAGAUACCAGCCACGAAAGUGGCCCUUGGCAGCUCUGCCAGUGAUGUUGGUCAAGGUCCU | > 3 | – |
| Eterna 7752556 (Exclusion - Arginine B) (ssRNA) RNA: UUAGUCUAGAGAAGGAGCGAGUGAUGUUCGCAUGCUAUGAUGAAUUCAUCAUAGUUUAAUCCUCAGGUAGGUCGCUCUAGACAUU | > 3 | – |
| Eterna 7726098 (Exclusion - FMN A) (ssRNA) RNA: AAGUGAUGUUGUAGUGAUGUUGUGAUGUUGCAGGAUAUAUAGUGAUGUAGAAGGGUAAGUACUUAUUUUUUUUUUGAGUUAUGUU | > 3 | – |
| Eterna 7616241 (Exclusion - Tryptophan A) (ssRNA) RNA: AAUGUAUGCCACAUGAGGAUCACCCAUGUGCGAGGACCGGUACGGCCGCCACUCGGUCGGUGGUUAAUGAAGAUAUACAAUAAUG | – | Kd [8]: 0.0155 µM |
| Eterna 7759081 (Exclusion - Theophylline A) (ssRNA) RNA: AACUGUCAAGGACAACAUUACUGAGGUGAUACCAGCAUCGAAAGAUGCCCUUGGCAGCGCCAACUUGCAGUGAUGUUGCAAGUAA | > 3 | – |
| Eterna 6391704 (Inverted Exclusion NG 3) (ssRNA) RNA: AGCUGGUGACAGCAUCCAUCUUAACAUGAGGAUCACCCAUGUAGAAGGCUGUACGGUUACCGUACAGAGGAUAUACAUAGAUGG | – | Kd [9]: 0.00928 µM |
